Measurements from publication PMC7387707, “An (R)-Selective Transaminase From Thermomyces stellatus: Stabilizing the Tetrameric Form” (Frontiers in Bioengineering and Biotechnology, 2020).

Columns and labels:
C[C@@H](N)c1ccccc1 [1] = experiment: acetophenone formation, plate reader; substrate-inhibition fit; type: biochemical, Aspergillus terreus; settings: 10 mM pyruvate, 1% DMSO, 30 °C, pH 8
From the text: (§1) acetophenone formation, plate reader; substrate-inhibition fit on AtRTA

AtRTA = biological target: T1, AtRTA (Aspergillus terreus, UniProt Q0C8G1); experiment: as above; type: biochemical; settings: 30 °C, pH 8
T1 construct: gene ATEG_10023; synthetic gene (Johnson Matthey) in pCH93b (pET22b(+)-derived, TEV site added), E. coli BL21 STAR (DE3), Ni-IMAC
From the text: as §1

TsRTA [2] = biological target: T2, TsRTA (Microascus stellatus, UniProt Z9EHZ8S8K6); experiment: as above; type: biochemical; settings: 30 °C, pH 8
T2 construct: codon-optimised synthetic gene in pCH93b (pET22b(+)-derived, TEV site added), E. coli BL21 STAR (DE3), Ni-IMAC, C-terminal His-tag; structure residues 1-319 seen, 320-334 plus tag disordered
T2 sequence (Z9EHZ8S8K6 10-343): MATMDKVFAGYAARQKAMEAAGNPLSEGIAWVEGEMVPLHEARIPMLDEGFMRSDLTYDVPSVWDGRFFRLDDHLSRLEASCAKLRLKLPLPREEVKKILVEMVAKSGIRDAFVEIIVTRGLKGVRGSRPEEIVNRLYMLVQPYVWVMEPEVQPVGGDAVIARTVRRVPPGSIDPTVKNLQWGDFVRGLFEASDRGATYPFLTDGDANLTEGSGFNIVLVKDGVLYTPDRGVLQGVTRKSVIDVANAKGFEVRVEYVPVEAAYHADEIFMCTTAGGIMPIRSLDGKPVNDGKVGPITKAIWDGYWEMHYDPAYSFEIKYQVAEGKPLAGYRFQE
From the text: (§2) acetophenone formation, plate reader; substrate-inhibition fit on TsRTA

TsRTA [3] = biological target: T3, TsRTA (Microascus stellatus, UniProt Z9EHZ8S8K6, G205C); experiment: as above; type: biochemical; settings: 10 mM pyruvate, 1% DMSO, 30 °C, pH 8
T3 construct: codon-optimised synthetic gene in pCH93b (pET22b(+)-derived, TEV site added), E. coli BL21 STAR (DE3), Ni-IMAC, C-terminal His-tag; structure residues 1-319 seen, 320-334 plus tag disordered
T3 sequence (Z9EHZ8S8K6 10-343 G205C): T2 sequence (Z9EHZ8S8K6 10-343)
From the text: as §2

[4] = biological target: TsRTA_G205C (Thermomyces stellatus); experiment: SEC; Superdex 200 10/300 GL; 50 mM potassium phosphate, 100 mM NaCl, 0.1 mM PLP, pH 8; ca 2 mg/mL protein; injected directly after preparation or after incubation (ambient temperature; or 10 mM β-mercaptoethanol at 4°C for 2 days, dialysis, overnight aeration); shares of tetramer, dimer and monomer; 0-1,200 mM NaCl had no effect on the tetramer
CC(=O)C(=O)O [5] = experiment: purified protein; settings: 2.5 mM RMBA, 0.25% DMSO, 30 °C, pH 8
C[C@@H](N)c1ccccc1 [6] = experiment: purified protein; settings: 10 mM pyruvate, 1% DMSO, 30 °C, pH 8
[7] = biological target: AtRTA_G207C (Aspergillus terreus) (UniProt Q0C8G1); experiment: SEC
[8] = biological target: AtRTA_G207C (Aspergillus terreus) (UniProt Q0C8G1)
TsRTA [9] = biological target: T2, TsRTA; experiment: X-ray structure, […] Å; type: binding; settings: covalent (imine with K178); active site
Q0C8G1 = settings: SEC
CC(=O)C(=O)O [10] = experiment: acetophenone formation, plate reader; substrate-inhibition fit; type: biochemical, Aspergillus terreus; settings: 2.5 mM RMBA, 0.25% DMSO, 30 °C, pH 8
From the text: as §1

[11] = biological target: (R)-selective transaminase from Thermomyces stellatus (TsRTA), wild type (Thermomyces stellatus); experiment: SEC; Superdex 200 10/300 GL; 50 mM potassium phosphate, 100 mM NaCl, 0.1 mM PLP, pH 8; ca 2 mg/mL protein; injected directly after preparation or after incubation (ambient temperature; or 10 mM β-mercaptoethanol at 4°C for 2 days, dialysis, overnight aeration); shares of tetramer, dimer and monomer; 0-1,200 mM NaCl had no effect on the tetramer
CC(=O)C(=O)O [12] = experiment: acetophenone formation, plate reader; substrate-inhibition fit; type: biochemical, Microascus stellatus; settings: 2.5 mM RMBA, 0.25% DMSO, 30 °C, pH 8
From the text: as §2

C[C@@H](N)c1ccccc1 [13] = experiment: as above; type: biochemical, Microascus stellatus; settings: 10 mM pyruvate, 1% DMSO, 30 °C, pH 8
From the text: as §2

[14] = SEC; Superdex 200 10/300 GL; 50 mM potassium phosphate, 100 mM NaCl, 0.1 mM PLP, pH 8; ca 2 mg/mL protein; injected directly after preparation or after incubation (ambient temperature; or 10 mM β-mercaptoethanol at 4°C for 2 days, dialysis, overnight aeration); shares of tetramer, dimer and …
[15] = biological target: the molecule itself; experiment: SEC; Superdex 200 10/300 GL; 50 mM potassium phosphate, 100 mM NaCl, 0.1 mM PLP, pH 8; ca 2 mg/mL protein; injected directly after preparation or after incubation (ambient temperature; or 10 mM β-mercaptoethanol at 4°C for 2 days, dialysis, overnight aeration); shares of tetramer, dimer and monomer; 0-1,200 mM NaCl had no effect on the tetramer

AtRTA (Aspergillus terreus NIH2624)
Km (C[C@@H](N)c1ccccc1 [1]): 170 ± 10 µM | kcat (C[C@@H](N)c1ccccc1 [1]): 2.24 ± 0.04 s⁻¹ | kcat/Km (C[C@@H](N)c1ccccc1 [1]): 13300 ± 500 M⁻¹ s⁻¹

C[C@@H](N)c1ccccc1 [RMBA]
Ki (AtRTA; 10 mM pyruvate, 1% DMSO): 19 ± 1 mM | Ki (TsRTA [2]; 10 mM pyruvate, 1% DMSO): 15 ± 1 mM | Ki (TsRTA [3]): 20 ± 2 mM

TsRTA_G205C (enzyme)
percent dimer (after β-mercaptoethanol, dialysis and aeration) [4]: 11% | percent dimer (immediately following purification) [4]: 42% | percent monomer (immediately following purification) [4]: 2% | percent tetramer (after β-mercaptoethanol, dialysis and aeration) [4]: 89% | percent tetramer (immediately following purification) [4]: 55% | stoichiometry N [4]: 4

TsRTA (Microascus stellatus; G205C)
Km (CC(=O)C(=O)O [5]): 420 ± 10 µM | kcat (CC(=O)C(=O)O [5]): 1.33 ± 0.02 s⁻¹ | kcat/Km (CC(=O)C(=O)O [5]): 3200 ± 100 M⁻¹ s⁻¹ | Km (C[C@@H](N)c1ccccc1 [6]): 120 ± 10 µM | kcat (C[C@@H](N)c1ccccc1 [6]): 1.35 ± 0.03 s⁻¹ | kcat/Km (C[C@@H](N)c1ccccc1 [6]): 11000 ± 600 M⁻¹ s⁻¹

AtRTA_G207C (from UniProt Q0C8G1 1-325) (enzyme)
percent dimer (after β-mercaptoethanol, dialysis and aeration) [7]: 5% | percent dimer (immediately following purification) [7]: 19% | percent dimer and tetramer (after β-mercaptoethanol pre-treatment) [7]: 94% | percent dimer and tetramer (before β-mercaptoethanol pre-treatment) [7]: 57% | percent monomer (after β-mercaptoethanol, dialysis and aeration) [7]: 6% | percent monomer (immediately following purification) [7]: 52% | percent tetramer (after β-mercaptoethanol, dialysis and aeration) [7]: 89% | percent tetramer (immediately following purification) [7]: 28% | stoichiometry N [7]: 4 | increase in enzyme activity after β-mercaptoethanol pre-treatment [8]: 65%

Cc1ncc(COP(=O)(O)O)c(C=O)c1O [PLP]
X-ray structure, 2.2 Å (TsRTA [9]): The active site pocket houses a single PLP molecule, covalently bound to each TsRTA chain

CC(=O)C(=O)O [Pyruvate]
Ki (AtRTA; 2.5 mM RMBA, 0.25% DMSO): 52 ± 4 mM | Ki (TsRTA [2]; 2.5 mM RMBA, 0.25% DMSO): 39 ± 5 mM

AtRTA_G207C
percent tetramer (sample with a lower proportion of tetramer used for the thermostability assay) (Q0C8G1): AtRTA_G207C: 55% tetramer

AtRTA (Aspergillus terreus NIH2624; G207C)
Km (CC(=O)C(=O)O [10]): 190 ± 10 µM | kcat (CC(=O)C(=O)O [10]): 1.71 ± 0.03 s⁻¹ | kcat/Km (CC(=O)C(=O)O [10]): 9200 ± 500 M⁻¹ s⁻¹ | Km (C[C@@H](N)c1ccccc1 [1]): 300 ± 20 µM | kcat (C[C@@H](N)c1ccccc1 [1]): 1.96 ± 0.05 s⁻¹ | kcat/Km (C[C@@H](N)c1ccccc1 [1]): 6400 ± 300 M⁻¹ s⁻¹

(R)-selective transaminase from Thermomyces stellatus (TsRTA), wild type (enzyme)
percent dimer [11]: 10% | percent tetramer [11]: 90% | stoichiometry N [11]: 4

TsRTA (Microascus stellatus)
Km (CC(=O)C(=O)O [12]): 570 ± 30 µM | kcat (CC(=O)C(=O)O [12]): 2.21 ± 0.04 s⁻¹ | kcat/Km (CC(=O)C(=O)O [12]): 3900 ± 100 M⁻¹ s⁻¹ | Km (C[C@@H](N)c1ccccc1 [13]): 130 ± 10 µM | kcat (C[C@@H](N)c1ccccc1 [13]): 1.82 ± 0.03 s⁻¹ | kcat/Km (C[C@@H](N)c1ccccc1 [13]): 13800 ± 600 M⁻¹ s⁻¹

TsRTA_G205C
percent tetramer (sample with a lower proportion of tetramer used for the thermostability assay) [14]: TsRTA_G205C: 75% tetramer

B1: (R)-selective transaminase from Aspergillus terreus (AtRTA), wild type (enzyme)
chain: MASMDKVFAGYAARQAILESTETTNPFAKGIAWVEGELVPLAEARIPLLDQGFMHSDLTYDVPSVWDGRFFRLDDHITRLEASCTKLRLRLPLPRDQVKQILVEMVAKSGIRDAFVELIVTRGLKGVRGTRPEDIVNNLYMFVQPYVWVMEPDMQRVGGSAVVARTVRRVPPGAIDPTVKNLQWGDLVRGMFEAADRGATYPFLTDGDAHLTEGSGFNIVLVKDGVLYTPDRGVLQGVTRKSVINAAEAFGIEVRVEFVPVELAYRCDEIFMCTTAGGIMPITTLDGMPVNGGQIGPITKKIWDGYWAMHYDAAYSFEIDYNERN
notes: the forward primer holds the ATG; Same vector as TsRTA, whose His-tag is C-terminal; also called omega transaminase from Aspergillus terreus; source: E. coli BL21 STAR (DE3), purified (IMAC)
stoichiometry N [15]: 4
